In patent publication US20040018558A1 (published 2004):
Where no end group is shown, it is not given here.

B1: Clone No. 9 (Table IX) IQGVLKDCGLL (peptide, not shown: small tags and cut ends)
chain: IQGVLKDCGLL
modifications: also: fused to LacI carrier via linker, letters not given here
B2: Clone No. 14 (Table IX) IFLNLKDCGLF (peptide, not shown: small tags and cut ends)
chain: IFLNLKDCGLF
modifications: also: fused to LacI carrier via linker, letters not given here
B3: AG11 DRMHLWRFGLL (peptide, not shown: small tags and cut ends)
chain: DRMHLWRFGLL
modifications: not fully specified
B4: Clone No. 6 (Table IX) LRESLKQCGLF (peptide, not shown: small tags and cut ends)
chain: LRESLKQCGLF
modifications: also: fused to LacI carrier via linker, letters not given here
B5: Clone No. 4 (Table IX) ILTKLTDCGLF (peptide, not shown: small tags and cut ends)
chain: ILTKLTDCGLF
modifications: also: fused to LacI carrier via linker, letters not given here
B6: Clone No. 16 (Table IX) IIDNLKDCGLF (peptide, not shown: small tags and cut ends)
chain: IIDNLKDCGLF
modifications: also: fused to LacI carrier via linker, letters not given here
B7: L10 IRDNLKDCGLF (peptide, not shown: small tags and cut ends)
chain: IRDNLKDCGLF
modifications: also: fused to fusion carrier of the lysate via linker, not given here
notes: second of two rows labelled L10
B8: AG18 QRMNLGPCGLL (peptide, not shown: small tags and cut ends)
chain: QRMNLGPCGLL
modifications: not fully specified
B9: Clone No. 23 (Table IX) VLEDLKSCGLF (peptide, not shown: small tags and cut ends)
chain: VLEDLKSCGLF
modifications: also: fused to LacI carrier via linker, letters not given here
B10: BAR40 PCIQLGQYESF (peptide, not shown: small tags and cut ends)
chain: PCIQLGQYESF
modifications: not fully specified
B11: Clone No. 3 (Table IX) LLDNIKDCGLF (peptide, not shown: small tags and cut ends)
chain: LLDNIKDCGLF
modifications: also: fused to LacI carrier via linker, letters not given here
B12: BAR1 QRIHRRPFKFF (peptide, not shown: small tags and cut ends)
chain: QRIHRRPFKFF
modifications: not fully specified
B13: AG4 QRLRLGPDELF (peptide, not shown: small tags and cut ends)
chain: QRLRLGPDELF
modifications: not fully specified
B14: L7 MLDNLKDCGLF (peptide, not shown: small tags and cut ends)
chain: MLDNLKDCGLF
modifications: also: fused to lysate carrier and linker, not given here
B15: Clone No. 18 (Table IX) MLENLKDCGLF (peptide, not shown: small tags and cut ends)
chain: MLENLKDCGLF
modifications: also: fused to LacI carrier via linker, letters not given here
B16: Clone No. 10 (Table IX) ICENLKECGLF (peptide, not shown: small tags and cut ends)
chain: ICENLKECGLF
modifications: cysteine pairing not given here; also: fused to LacI carrier via linker, letters not given here
B17: Clone No. 15/28 (Table IX) IRENLEDCGLF (peptide, not shown: small tags and cut ends)
chain: IRENLEDCGLF
modifications: also: fused to LacI carrier via linker, letters not given here
B18: AG1 QGMQLRRFKLR (peptide, not shown: small tags and cut ends)
chain: QGMQLRRFKLR
modifications: not fully specified
B19: BAR20 NCMKFRSCGLF (peptide, not shown: small tags and cut ends)
chain: NCMKFRSCGLF
modifications: not fully specified; cysteine pairing not given here
B20: Clone No. 17 (Table IX) MRESLKDCGLF (peptide, not shown: small tags and cut ends)
chain: MRESLKDCGLF
modifications: also: fused to LacI carrier via linker, letters not given here
B21: Clone No. 26 (Table IX) ILADVIDCGLF (peptide, not shown: small tags and cut ends)
chain: ILADVIDCGLF
modifications: also: fused to LacI carrier via linker, letters not given here
B22: AG9 QRMPLRQYELL (peptide, not shown: small tags and cut ends)
chain: QRMPLRQYELL
modifications: not fully specified
B23: BAR31 QRLRLRKYRLF (peptide, not shown: small tags and cut ends)
chain: QRLRLRKYRLF
modifications: not fully specified
B24: L33 IVEILEDCGLF (peptide, not shown: small tags and cut ends)
chain: IVEILEDCGLF
modifications: also: fused to fusion carrier of the lysate via linker, not given here
B25: AG20 RWLHWQYRGRG (peptide, not shown: small tags and cut ends)
chain: RWLHWQYRGRG
modifications: not fully specified
B26: Clone No. 27 (Table IX) MCESLKECGLF (peptide, not shown: small tags and cut ends)
chain: MCESLKECGLF
modifications: cysteine pairing not given here; also: fused to LacI carrier via linker, letters not given here
B27: AG19 PRPRLLRFKIP (peptide, not shown: small tags and cut ends)
chain: PRPRLLRFKIP
modifications: also: fused to carrier via linker, not given here
B28: Clone No. 11 (Table IX) IHASLRDCGLF (peptide, not shown: small tags and cut ends)
chain: IHASLRDCGLF
modifications: also: fused to LacI carrier via linker, letters not given here
B29: L3 ILENLKDCGLF (peptide, not shown: small tags and cut ends)
chain: ILENLKDCGLF
modifications: also: fused to fusion carrier of the lysate via linker, not given here
B30: L6 ICENLKDCGLF (peptide, not shown: small tags and cut ends)
chain: ICENLKDCGLF
modifications: cysteine pairing not given here; also: fused to lysate carrier and linker, not given here
B31: AG13 QRLHLRGYEFL (peptide, not shown: small tags and cut ends)
chain: QRLHLRGYEFL
modifications: not fully specified
B32: BAR2 QRVHLRQDELL (peptide, not shown: small tags and cut ends)
chain: QRVHLRQDELL
modifications: not fully specified
B33: Clone No. 19 (Table IX) IRETLKDCGLL (peptide, not shown: small tags and cut ends)
chain: IRETLKDCGLL
modifications: also: fused to LacI carrier via linker, letters not given here
B34: L4 MLDNLKACGLF (peptide, not shown: small tags and cut ends)
chain: MLDNLKACGLF
modifications: also: fused to lysate carrier and linker, not given here
B35: AG3 QRMPLRLFEFL (peptide, not shown: small tags and cut ends)
chain: QRMPLRLFEFL
modifications: not fully specified
B36: BAR8 ERLHRRLFQLH (peptide, not shown: small tags and cut ends)
chain: ERLHRRLFQLH
modifications: not fully specified
B37: BAR3 QWMDLRQHELL (peptide, not shown: small tags and cut ends)
chain: QWMDLRQHELL
modifications: not fully specified
B38: Clone No. 24 (Table IX) MLKNLKDCGMF (peptide, not shown: small tags and cut ends)
chain: MLKNLKDCGMF
modifications: also: fused to LacI carrier via linker, letters not given here
B39: AG2 QGEHLRQLQLQ (peptide, not shown: small tags and cut ends)
chain: QGEHLRQLQLQ
modifications: not fully specified

Tests used:
[1] = biological target: T1, light-activated rhodopsin (bovine rod outer segment membranes) (bovine, UniProt P02699 1-348, retinylidene chromophore bound to Lys-296); experiment: LacI display panning, light-activated ROS membranes
T1 construct: whole, on cells; native receptor in membrane fragments immobilised on wells, not intact cells; also called metarhodopsin II; MII
T1 sequence (P02699 whole entry, the tested form may be a part): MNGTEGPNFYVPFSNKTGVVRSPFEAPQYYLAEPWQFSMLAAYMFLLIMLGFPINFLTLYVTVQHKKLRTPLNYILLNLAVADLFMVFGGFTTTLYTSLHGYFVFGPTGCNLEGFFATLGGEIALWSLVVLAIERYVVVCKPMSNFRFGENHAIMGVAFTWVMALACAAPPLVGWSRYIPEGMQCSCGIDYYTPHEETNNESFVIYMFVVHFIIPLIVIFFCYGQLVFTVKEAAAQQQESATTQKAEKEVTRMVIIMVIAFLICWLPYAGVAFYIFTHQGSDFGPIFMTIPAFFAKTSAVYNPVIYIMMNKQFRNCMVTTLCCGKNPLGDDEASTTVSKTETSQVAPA
Description: For screening of the library by “panning,” rhodopsin receptors prepared according to Example 5 were immobilized directly on Immulon 4 (Dynatech) microtiter wells (0.1-1 μg of protein per well) in cold 35 mM HEPES, pH 7.5, containing 0.1 mM EDTA, 50 mM KCl and 1 mM dithiothreitol (HEK/DTT). After shaking for one hour at 4° C., unbound membrane fragments were washed away with HEK/DTT. The wells were blocked with 100 μl 2% BSA in HEKL (35 mM HEPES; 0.1 mM EDTA; 50 mM KCl; 0.2 M α-lactose; pH 7.5, with 1 mM DTT). For rounds 1 and 2, BSA was used for blocking; in later rounds 1% nonfat dry milk was used. For the first round of panning, about 24 wells of a 96-well plate were used. In subsequent rounds, 8 wells with receptor and 8 wells without receptor were prepared.
The Gt library was thawed (2 mL aliquot) and mixed with 6 mL lysis buffer on ice. Lysis buffer contains 4.25 mL HE (25 mM HEPES: 0.1 mM EDTA; pH 7.5); 1 mL 50% glycerol; 750 μL 10 mg/mL protease-free BSA in HE; 10 μL 0.5 M DTT; and 6.25 μL 0.2 M PMSF. Freshly prepared lysozyme solution (150 μL 10 mg/mL lysozyme in cold HE) was added and the tube was gently inverted several times and incubated on ice for no more than two minutes. The extent of lysis is evidenced by an increase in viscosity that can be observed by noting the slow migration of bubbles to the top of the tube after mixing. Lysis was terminated by mixing in 2 mL 20% lactose and 250 μL 2M KCl. The tube was centrifuged immediately at 13,000×g for 15 minutes at 4° C. and the supernatant transferred to a new tube. A small aliquot of 0.1% (the PRE sample) was saved in a separate, labeled tube. […] Immediately thereafter, the crude bacterial lysate from the peptide library (200 μL) was added to each well and allowed to shake gently for one hour at 4° C. For round 2, this same procedure was followed. In round 3, the amount of lysate used was reduced to 100 μL. In subsequent rounds, the lysate was diluted 1:10 in HEKL/BSA.

[2] = biological target: recombinant reconstituted β2 adrenergic receptor; experiment: ELISA of clones panned from the Gs library, reconstituted β2 adrenergic receptor
[3] = biological target: T2, rhodopsin (activation state not stated) (bovine, UniProt P02699 1-348); experiment: ELISA of lysates, OD450 with receptor minus without receptor
T2 construct: whole, on cells; same protein as m1; also called EDTA-washed rhodopsin
T2 sequence (P02699 whole entry): as the sequence (P02699 whole entry, the tested form may be a part) above
Description: The methods of Example 7 repeated using rhodopsin screening with a Gt library. To identify the rank order of binding, the lysates were analyzed using ELISA methods in which the secondary antibody was conjugated to HRP. Following addition of the substrate, the microplate was read using a spectrophotometer. The binding is the OD₄₅₀ for wells with receptor—OD₄₅₀ for wells in which no receptor (control wells with empty lipid vesicles).

Binder	binding result [1]	ELISA [2]	further results
B1	binds	–	–
B2	binds	–	–
B3	–	0.192	–
B4	binds	–	–
B5	binds	–	–
B6	binds	–	–
B7	–	–	ELISA [3]: 0.162 OD450
B8	–	0.155	–
B9	binds	–	–
B10	–	0.028	–
B11	binds	–	–
B12	–	0.218	–
B13	–	0.291	–
B14	–	–	ELISA [3]: 0.525 OD450
B15	binds	–	–
B16	binds	–	–
B17	binds	–	–
B18	–	0.435	–
B19	–	0.079	–
B20	binds	–	–

Binder	binding result [1]	ELISA [2]	further results
B21	binds	–	–
B22	–	0.19	–
B23	–	0.026	–
B24	–	–	ELISA [3]: 1.01 OD450
B25	–	0.431	–
B26	binds	–	–
B27	–	0.361	–
B28	binds	–	–
B29	–	–	ELISA [3]: 0.839 OD450
B30	–	–	ELISA [3]: 0.342 OD450
B31	–	0.054	–
B32	–	0.197	–
B33	binds	–	–
B34	–	–	ELISA [3]: 0.908 OD450
B35	–	0.217	–
B36	–	0.047	–
B37	–	0.185	–
B38	binds	–	–
B39	–	0.33	–
